US20180064758A1

Assays:
[1] = target: Recombinant soluble CD19 ectodomain (made in 293T cells) (UniProt P15391); assay: flow cytometry of transduced primary human T-cells stained with anti-CD3 and, for CAR, with recombinant CD19. Other quadrants: 74.7 upper left, 1.86 lower left, 0.16 lower right. The non-transduced control has 0.27 in the upper right
[2] = target: CD19 (partner in the 'Cellular affinity' column); assay: column 'Cellular affinity' of the drawn table; unit not given, the assay is not described in the filing and the format of the construct is not stated
[3] = target: Recombinant soluble CD19 ectodomain (made in 293T cells) (UniProt P15391); assay: flow cytometry of transduced primary human T-cells stained with anti-CD3 and, for CAR, with recombinant CD19. Other quadrants: 67.5 upper left, 1.43 lower left, 0.24 lower right. The non-transduced control has 0.27 in the upper right

Chain of UniProt P15391 (P15391 20-291 limits assumed): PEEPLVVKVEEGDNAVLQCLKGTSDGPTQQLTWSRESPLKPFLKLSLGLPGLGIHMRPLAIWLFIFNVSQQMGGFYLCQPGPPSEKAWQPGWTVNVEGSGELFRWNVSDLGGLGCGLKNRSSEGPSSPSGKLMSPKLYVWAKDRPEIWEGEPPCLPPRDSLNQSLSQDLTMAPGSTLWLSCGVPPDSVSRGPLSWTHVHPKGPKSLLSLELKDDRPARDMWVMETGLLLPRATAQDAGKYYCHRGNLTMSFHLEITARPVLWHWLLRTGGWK

Cellular affinity [2] | Substance | also measured
 | 4G7 CAR in the Campana format (CD8 stalk spacer and transmembrane domain, 41BB endodomain, CD3-Zeta endodomain), on primary human T-cells | % of cells in the CD3+ CAR+ quadrant (upper right) [1]: 23.3%
2e-10 | Fmc63 scFv-Fc (soluble recombinant scFv in scFv-Fc format, made in 293T cells) (Fc fusion) | 
1e-09 | 4G7 scFv-Fc (soluble recombinant scFv in scFv-Fc format, made in 293T cells) (Fc fusion) | 
 | fmc63 CAR in the Campana format (CD8 stalk spacer and transmembrane domain, 41BB endodomain, CD3-Zeta endodomain), on primary human T-cells | % of cells in the CD3+ CAR+ quadrant (upper right) [3]: 30.8%
